In US20110268745A1 (Novo Nordisk, published 2011):

Biological target: T1, human tissue factor pathway inhibitor (TFPI) (human, UniProt P10646 29-304, biotinylated in the ELISA (site not stated))
T1 construct: Full length TFPI and a short version, TFPIB161B (first two Kunitz domains), were both used for immunisation and ELISA; also called TFPI1; human TFPI1
T1 sequence: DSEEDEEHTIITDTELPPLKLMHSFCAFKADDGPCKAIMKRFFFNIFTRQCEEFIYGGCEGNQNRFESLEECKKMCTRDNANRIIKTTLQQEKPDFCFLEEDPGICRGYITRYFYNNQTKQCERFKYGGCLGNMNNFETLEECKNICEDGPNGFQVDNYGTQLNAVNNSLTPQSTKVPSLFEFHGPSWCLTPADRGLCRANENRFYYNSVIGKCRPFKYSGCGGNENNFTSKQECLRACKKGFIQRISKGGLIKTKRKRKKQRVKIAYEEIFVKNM
Assay: hybridoma screening; ELISA with antibody captured on anti-mouse IgG and soluble biotinylated human TFPI or TFPIB161B, as described in the methods
Method: Immunoplates were coated with anti-mouse IgG. Culture supernatants from the hybridoma cells were added to the plates and, after washing, soluble biotinylated human TFPI or TFPIB161B was added to test for specific binding.

- binding result: binds
B1: TFPI-3F18A4B1 (antibody, IgG1, V domains shown)
VH: EVKLVESGGGLVKPGGSLRLSCAASGFTFSNYALSWVRQTPDKRLEWVASISSGGATYYPDSVEGRFTISRDNVRNILYLQMSSLQSEDTAMYYCTRGAYGSDYFDYWGQGTTLTVSS
VL: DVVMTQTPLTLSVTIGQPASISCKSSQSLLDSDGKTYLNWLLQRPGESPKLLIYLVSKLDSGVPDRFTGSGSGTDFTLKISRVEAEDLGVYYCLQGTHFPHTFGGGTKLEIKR
notes: also called TFPI-3F18A2; anti-TFPI antibody 3F18
